Target: ab1ip_mouse Apbb1ip (UniProt Q8R5A3)
Chain of UniProt Q8R5A3 (Q8R5A3 whole entry): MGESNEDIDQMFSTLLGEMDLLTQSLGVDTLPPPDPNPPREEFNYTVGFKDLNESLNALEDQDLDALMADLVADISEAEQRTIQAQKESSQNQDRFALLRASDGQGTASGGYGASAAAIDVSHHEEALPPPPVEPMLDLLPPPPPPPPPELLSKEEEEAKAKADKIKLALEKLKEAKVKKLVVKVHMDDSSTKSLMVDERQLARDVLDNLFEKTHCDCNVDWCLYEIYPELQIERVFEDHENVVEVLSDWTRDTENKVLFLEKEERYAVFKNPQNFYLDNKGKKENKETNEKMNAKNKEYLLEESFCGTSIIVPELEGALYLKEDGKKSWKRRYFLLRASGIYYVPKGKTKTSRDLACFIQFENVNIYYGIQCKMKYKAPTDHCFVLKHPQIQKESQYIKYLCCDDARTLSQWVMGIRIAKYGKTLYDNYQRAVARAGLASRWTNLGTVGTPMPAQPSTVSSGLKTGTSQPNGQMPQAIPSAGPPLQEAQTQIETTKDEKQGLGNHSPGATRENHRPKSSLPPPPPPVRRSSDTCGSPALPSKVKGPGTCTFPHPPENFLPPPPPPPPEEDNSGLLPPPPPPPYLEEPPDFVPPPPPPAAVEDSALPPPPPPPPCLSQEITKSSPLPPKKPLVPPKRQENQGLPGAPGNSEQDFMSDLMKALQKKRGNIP

Substance	effect of a mutation on the interaction
Talin-1 (Mus musculus), P26039 E1794Y;E1797Y	decreasing interaction strength
Talin-1 (Mus musculus), P26039 E1794Y;E1797Y;Q1801Y	decreasing interaction strength

Reference: IntAct's records for PubMed 27150043
